In PMC4183148:
Where “and” joins values, the source holds several entries; their conditions need not be identical. Equal values may be shown once. Read-outs that look alike come from different tables or passages of the source.

Assays:
[1] = molecular target: PKM2 (pyruvate kinase, M2 isoform), endogenous (human (endogenous in HEK293T, H1299, U87)) (UniProt P14618); test: SEC
[2] = molecular target: PKM2 (pyruvate kinase, M2 isoform), endogenous (human (endogenous in HEK293T, H1299, U87)) (UniProt P14618); test: SEC; remark: listed apart in the source

PKM2 (pyruvate kinase, M2 isoform), endogenous, P14618 1-531 (natural protein; other documents disagree on this pair), sequence (P14618 whole entry, canonical isoform): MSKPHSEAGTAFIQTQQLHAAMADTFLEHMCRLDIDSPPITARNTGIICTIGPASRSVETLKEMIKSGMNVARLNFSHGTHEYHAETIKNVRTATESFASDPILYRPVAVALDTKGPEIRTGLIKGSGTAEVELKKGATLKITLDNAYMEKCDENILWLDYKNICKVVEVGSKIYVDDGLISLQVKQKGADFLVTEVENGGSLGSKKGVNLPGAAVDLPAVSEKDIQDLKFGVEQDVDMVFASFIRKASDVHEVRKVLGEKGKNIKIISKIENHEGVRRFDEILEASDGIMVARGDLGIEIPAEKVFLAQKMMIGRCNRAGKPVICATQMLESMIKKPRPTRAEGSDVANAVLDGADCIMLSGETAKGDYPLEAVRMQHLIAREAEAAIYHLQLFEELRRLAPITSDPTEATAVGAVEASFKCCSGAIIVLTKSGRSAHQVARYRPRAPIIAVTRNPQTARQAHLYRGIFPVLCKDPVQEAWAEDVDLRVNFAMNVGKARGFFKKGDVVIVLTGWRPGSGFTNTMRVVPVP

percent dimeric form [1]: 78.9%
percent tetrameric form [1]: 20.1%
percent dimeric form [2]: 66.5% and 56%
percent tetrameric form [2]: 26.2% and 43.8%
Substance: PKM2 (pyruvate kinase, M2 isoform), endogenous, P14618 1-531 (natural protein; other documents disagree on this pair)
